Test results as given in patent US20250163127A1.
Where a chain is given by its changes, count along the chain named. Names and notes keep the numbering of the source. Values belong to the binder of their own block, whether it stands above or below them.

Tests used:
[1] = molecular target: CD28, full-length, expressed on transfected cells (Homo sapiens (Human)) (UniProt P10747); assay: flow cytometry, cells expressing target
[2] = substrate: ICOS as used in the OD read-out of Table E15A (Homo sapiens (Human)) (UniProt Q9Y6W8); assay: OD read-out, format not told
[3] = molecular target: PD-L1 (human); assay: flow cytometry, CHO cells expressing PD-L1
[4] = molecular target: CTLA-4 (human); assay: flow cytometry, CHO cells expressing CTLA4
[5] = molecular target: CD28 (human) (UniProt P10747); assay: flow cytometry, Jurkat cells (CD28)

Sequence of CTLA-4 (human) (chain, as listed by the source): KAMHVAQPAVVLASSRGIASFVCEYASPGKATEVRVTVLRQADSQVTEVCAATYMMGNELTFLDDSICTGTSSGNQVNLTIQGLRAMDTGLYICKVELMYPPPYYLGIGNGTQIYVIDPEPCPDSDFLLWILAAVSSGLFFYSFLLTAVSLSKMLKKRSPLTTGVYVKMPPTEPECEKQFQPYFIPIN
Sequence of PD-L1 (human) (chain, as listed by the source): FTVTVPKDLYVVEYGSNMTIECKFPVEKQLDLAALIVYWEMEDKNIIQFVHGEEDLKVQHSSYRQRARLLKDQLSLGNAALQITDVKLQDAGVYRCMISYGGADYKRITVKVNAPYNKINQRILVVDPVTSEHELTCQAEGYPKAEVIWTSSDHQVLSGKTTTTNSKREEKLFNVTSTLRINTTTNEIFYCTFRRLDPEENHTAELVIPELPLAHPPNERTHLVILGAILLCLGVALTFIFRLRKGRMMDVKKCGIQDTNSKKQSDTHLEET

MFI at 33.3 nM [4]: 246000 MFI
MFI at 33.3 nM [5]: 15300 MFI
B8: variant CD80 V22A/E35D/M47I/Y87N (Fc fusion)
chain: VIHVTKEVKEVATLSCGHNVSAEELAQTRIYWQKDKKMVLTMMSGDINIWPEYKNRTIFDITNNLSIVILALRPSDEGTYECVVLKNEKDAFKREHLAEVT

Fold change to WT CD80 [3]: 2.62 fold
MFI at 33.3 nM [3]: 31200 MFI
Fold change to WT CD80 [4]: 0.74 fold
MFI at 33.3 nM [4]: 117000 MFI
Fold change to WT CD80 [5]: 0.04 fold
MFI at 33.3 nM [5]: 644 MFI
B10: variant CD80 Q33L/E35D/M47I/N48D/A71G (Fc fusion)
chain: B8 chain with A22V, Q33L, N48D, A71G, N87Y

Fold change to WT CD80 [3]: 3.93 fold
MFI at 33.3 nM [3]: 46700 MFI
Fold change to WT CD80 [4]: 1.37 fold
MFI at 33.3 nM [4]: 216000 MFI
Fold change to WT CD80 [5]: 0.14 fold
MFI at 33.3 nM [5]: 2460 MFI
B13: variant CD80 E35D/M47L/A71G/L85M/F92Y (Fc fusion)
chain: B8 chain with A22V, I47L, A71G, L85M, N87Y, F92Y

Fold change to WT CD80 [3]: 2.58 fold
MFI at 33.3 nM [3]: 30700 MFI
Fold change to WT CD80 [4]: 1.64 fold
MFI at 33.3 nM [4]: 258000 MFI
Fold change to WT CD80 [5]: 0.19 fold
MFI at 33.3 nM [5]: 3510 MFI
B14: variant CD80 Q27H/E35D/M47I/L85Q/D90G (Fc fusion)
chain: B8 chain with A22V, Q27H, L85Q, N87Y, D90G

Fold change to WT CD80 [3]: 1.09 fold
MFI at 33.3 nM [3]: 13000 MFI
Fold change to WT CD80 [4]: 1.59 fold
MFI at 33.3 nM [4]: 249000 MFI
Fold change to WT CD80 [5]: 0.15 fold
MFI at 33.3 nM [5]: 2700 MFI
B15: variant CD80 E35D/T41S/M43V/M47I/L70M/A71G (Fc fusion)
chain: B8 chain with A22V, T41S, M43V, L70M, A71G, N87Y

Fold change to WT CD80 [3]: 0.13 fold
MFI at 33.3 nM [3]: 1590 MFI
Fold change to WT CD80 [4]: 0.03 fold
MFI at 33.3 nM [4]: 4690 MFI
Fold change to WT CD80 [5]: 0.02 fold
MFI at 33.3 nM [5]: 336 MFI
B16: variant CD80 R29H/E35D/M43V/M47I/I49V (Fc fusion)
chain: B8 chain with A22V, R29H, M43V, I49V, N87Y

Fold change to WT CD80 [3]: 7.56 fold
MFI at 33.3 nM [3]: 89800 MFI
Fold change to WT CD80 [4]: 0.01 fold
MFI at 33.3 nM [4]: 807 MFI
Fold change to WT CD80 [5]: 0.65 fold
MFI at 33.3 nM [5]: 11700 MFI
B17: variant CD80 E35D/M47V/N48K/V68M/K89N (Fc fusion)
chain: B8 chain with A22V, I47V, N48K, V68M, N87Y, K89N

Continued, binder first:

B1: ICOSL ECD-Fc N52S (Fc fusion)
chain: DTQEKEVRAMVGSDVELSCACPEGSRFDLNDVYVYWQTSESKTVVTYHIPQSSSLENVDSRYRNRALMSPAGMLRGDFSLRLFNVTPQDEQKFHCLVLSQSLGFQEVLSVEVTLHVAANFSVPVVSAPHSPSQDELTFTCTSINGYPRPNVYWINKTDNSLLDQALQNDTVFLNMRGLYDVVSVLRIARTPSVNIGCCIENVLLQQNLTVGSQTGNDIGERDKITENPVSTGEKNAAT
MFI [1]: 162 MFI
parental ratio [1]: 9 ratio to WT
OD [2]: 1.33 OD
parental ratio [2]: 1.55 ratio to WT

B2: ICOSL ECD-Fc N52S/Y152H (Fc fusion)
chain: B1 chain with Y152H
MFI [1]: 68 MFI
parental ratio [1]: 3.78 ratio to WT
OD [2]: 0.85 OD
parental ratio [2]: 0.99 ratio to WT

B3: ICOSL ECD-Fc N52S/D158G (Fc fusion)
chain: B1 chain with D158G
MFI [1]: 39 MFI
parental ratio [1]: 2.17 ratio to WT
OD [2]: 1.33 OD
parental ratio [2]: 1.55 ratio to WT

B4: ICOSL ECD-Fc N52S/Y146C/Y152C (Fc fusion)
chain: B1 chain with Y146C, Y152C
MFI [1]: 39 MFI
parental ratio [1]: 2.17 ratio to WT
OD [2]: 1.26 OD
parental ratio [2]: 1.47 ratio to WT

B5: ICOSL ECD-Fc N52D (Fc fusion)
chain: B1 chain with S52D
MFI [1]: 130 MFI
parental ratio [1]: 7.22 ratio to WT
OD [2]: 1.59 OD
parental ratio [2]: 1.85 ratio to WT

B6: ICOSL ECD-Fc F120S/Y152H/N201S (Fc fusion)
chain: B1 chain with S52N, F120S, Y152H, N201S
MFI [1]: 16 MFI
parental ratio [1]: 0.89 ratio to WT
OD [2]: 0.63 OD
parental ratio [2]: 0.73 ratio to WT

B7: variant CD80 E35D/L85Q/K93T/E95V/L97Q (Fc fusion)
chain: B8 chain with A22V, I47M, L85Q, N87Y, K93T, E95V, L97Q
Fold change to WT CD80 [3]: 1.67 fold
MFI at 33.3 nM [3]: 19900 MFI
Fold change to WT CD80 [4]: 1.57 fold
MFI at 33.3 nM [4]: 246000 MFI
Fold change to WT CD80 [5]: 0.02 fold
MFI at 33.3 nM [5]: 400 MFI

B9: variant CD80 E35D/D46E/M47V/N63D/L85Q (Fc fusion)
chain: B8 chain with A22V, D46E, I47V, N63D, L85Q, N87Y
Fold change to WT CD80 [3]: 5.88 fold
MFI at 33.3 nM [3]: 69800 MFI
Fold change to WT CD80 [4]: 1.74 fold
MFI at 33.3 nM [4]: 274000 MFI
Fold change to WT CD80 [5]: 0.07 fold
MFI at 33.3 nM [5]: 1330 MFI

B11: variant CD80 E35D/D46E/M47V/V68M/D90G/K93E (Fc fusion)
chain: B8 chain with A22V, D46E, I47V, V68M, N87Y, D90G, K93E
Fold change to WT CD80 [3]: 6.06 fold
MFI at 33.3 nM [3]: 71900 MFI
Fold change to WT CD80 [4]: 1.74 fold
MFI at 33.3 nM [4]: 273000 MFI
Fold change to WT CD80 [5]: 1.5 fold
MFI at 33.3 nM [5]: 27100 MFI

B12: variant CD80 E35D/M47I/L85Q/D90G (Fc fusion)
chain: B8 chain with A22V, L85Q, N87Y, D90G
Fold change to WT CD80 [3]: 3.01 fold
MFI at 33.3 nM [3]: 35700 MFI
Fold change to WT CD80 [4]: 1.57 fold
MFI at 33.3 nM [4]: 248000 MFI
Fold change to WT CD80 [5]: 0.23 fold
MFI at 33.3 nM [5]: 4100 MFI
